This is an account of results in PMC3488246.

The target of one series is T1, PALB2 (UniProt Q86YC2 1-1186).
T1 sequence: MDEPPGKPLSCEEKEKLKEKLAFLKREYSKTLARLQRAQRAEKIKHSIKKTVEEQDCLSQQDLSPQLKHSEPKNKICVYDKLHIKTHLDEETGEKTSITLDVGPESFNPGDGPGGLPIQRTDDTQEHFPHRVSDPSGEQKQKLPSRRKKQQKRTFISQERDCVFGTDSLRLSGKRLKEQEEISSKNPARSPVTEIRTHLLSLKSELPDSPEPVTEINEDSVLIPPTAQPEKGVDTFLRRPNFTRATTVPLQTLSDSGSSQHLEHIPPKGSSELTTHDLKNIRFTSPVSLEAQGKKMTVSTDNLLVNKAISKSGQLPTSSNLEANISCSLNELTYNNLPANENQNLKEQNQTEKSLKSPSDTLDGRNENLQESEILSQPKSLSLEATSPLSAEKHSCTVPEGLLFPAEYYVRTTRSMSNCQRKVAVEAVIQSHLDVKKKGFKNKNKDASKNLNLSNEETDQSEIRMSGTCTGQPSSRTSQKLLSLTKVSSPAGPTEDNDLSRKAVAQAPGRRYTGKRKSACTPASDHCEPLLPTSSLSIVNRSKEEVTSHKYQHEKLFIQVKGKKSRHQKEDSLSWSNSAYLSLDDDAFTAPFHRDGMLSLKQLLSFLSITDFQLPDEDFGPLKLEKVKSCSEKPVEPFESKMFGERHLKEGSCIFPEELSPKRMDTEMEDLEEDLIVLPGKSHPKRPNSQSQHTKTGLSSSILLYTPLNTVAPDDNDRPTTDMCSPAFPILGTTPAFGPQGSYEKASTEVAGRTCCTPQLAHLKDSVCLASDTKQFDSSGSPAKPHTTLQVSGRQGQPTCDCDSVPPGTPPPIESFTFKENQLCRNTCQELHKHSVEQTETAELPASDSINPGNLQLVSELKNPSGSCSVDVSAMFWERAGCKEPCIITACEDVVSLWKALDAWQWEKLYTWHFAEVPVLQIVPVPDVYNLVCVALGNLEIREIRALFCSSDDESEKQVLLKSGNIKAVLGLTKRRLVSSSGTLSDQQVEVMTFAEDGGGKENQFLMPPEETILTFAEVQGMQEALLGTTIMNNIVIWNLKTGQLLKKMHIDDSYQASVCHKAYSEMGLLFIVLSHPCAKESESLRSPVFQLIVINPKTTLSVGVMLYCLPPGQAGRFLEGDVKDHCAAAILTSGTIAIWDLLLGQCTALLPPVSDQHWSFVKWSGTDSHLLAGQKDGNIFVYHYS
Nature of the series: EMSA.

A further series deals with T2, PALB2Δ1-40 (UniProt Q86YC2 41-1186, del1-40).
T2 sequence: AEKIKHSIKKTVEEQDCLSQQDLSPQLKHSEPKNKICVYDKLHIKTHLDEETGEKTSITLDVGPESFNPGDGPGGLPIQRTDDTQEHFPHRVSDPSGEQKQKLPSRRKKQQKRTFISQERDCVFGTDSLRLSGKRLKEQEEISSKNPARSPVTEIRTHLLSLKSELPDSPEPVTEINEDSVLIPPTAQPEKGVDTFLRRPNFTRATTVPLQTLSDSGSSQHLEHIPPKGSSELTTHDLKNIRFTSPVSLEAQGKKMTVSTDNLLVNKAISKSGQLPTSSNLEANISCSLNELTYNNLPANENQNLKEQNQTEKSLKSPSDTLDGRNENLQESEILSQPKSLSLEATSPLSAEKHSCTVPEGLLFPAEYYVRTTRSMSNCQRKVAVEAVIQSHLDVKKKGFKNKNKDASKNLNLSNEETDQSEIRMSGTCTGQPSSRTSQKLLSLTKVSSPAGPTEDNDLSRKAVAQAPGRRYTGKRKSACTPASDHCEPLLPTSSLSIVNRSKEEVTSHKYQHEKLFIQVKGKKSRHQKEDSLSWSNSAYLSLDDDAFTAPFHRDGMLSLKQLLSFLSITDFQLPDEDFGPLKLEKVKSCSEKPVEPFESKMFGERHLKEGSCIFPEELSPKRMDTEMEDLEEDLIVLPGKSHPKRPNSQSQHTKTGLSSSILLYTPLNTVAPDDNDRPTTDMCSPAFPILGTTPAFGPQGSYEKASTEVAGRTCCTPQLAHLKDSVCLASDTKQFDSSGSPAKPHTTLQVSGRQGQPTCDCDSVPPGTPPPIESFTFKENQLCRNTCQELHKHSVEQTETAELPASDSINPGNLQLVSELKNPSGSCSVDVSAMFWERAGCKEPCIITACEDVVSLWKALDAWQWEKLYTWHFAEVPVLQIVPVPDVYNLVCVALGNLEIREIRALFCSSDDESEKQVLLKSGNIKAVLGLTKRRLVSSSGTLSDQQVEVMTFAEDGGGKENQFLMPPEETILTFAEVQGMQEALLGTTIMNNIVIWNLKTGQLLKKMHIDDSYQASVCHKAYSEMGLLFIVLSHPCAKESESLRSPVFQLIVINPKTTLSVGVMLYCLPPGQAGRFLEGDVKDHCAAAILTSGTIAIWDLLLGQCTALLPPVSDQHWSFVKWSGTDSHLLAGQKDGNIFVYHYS
Nature of the series: EMSA. Background: A gel shift assay detects complexes by their altered migration in electrophoresis.

B1: 60 nt ssDNA (ssDNA)
DNA: GGGTGAACCTGCAGGTGGGCAAAGATGTCCTAGCAATGTAATCGTCAAGCTTTATGCCGT
For the molecule B1, the binding result with PALB2 is “binds”. Besides, in the series with PALB2Δ1-40, the binding signal is ~5 fold stronger affinity than PALB2.
